Our source for the protein stability index values is the supplement of paper PMC10567573.

± gives the standard deviation.

This series can be described thus: protein stability index of a GFP-peptide fusion (GPS, HEK-293T) (PSI 1-6); higher = more stable.
[1] abbreviates: treatment: DMSO, c terminus: a fixed tail appended.
[2] abbreviates: treatment: MLN4924 1 uM, 8 h, c terminus: a fixed tail appended.
The mark [3] stands for this setting: treatment: DMSO, c terminus: native.
The mark [4] stands for this setting: treatment: MLN4924 1 uM, 8 h, c terminus: native.
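Further: 24-mer peptide tiles fused after GFP, lentivirally expressed, FACS-sorted into six equal bins by GFP/DsRed ratio, decoded by Illumina sequencing, PSI is the read-weighted mean bin number.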

AAAFSQCEEWSFFHAYYYCFITLT [KCNK9]: the protein stability index under setting [1] came to 3.33 ± 0.51 and the protein stability index under setting [2] turned out to be 3.23 ± 0.49. On the same counts, the results for AAANGGHVKIVKLLLAHKADVNAQ [ANKRD17] are 2.51 ± 0.31 and 2.68 ± 0.18. For AACIAYIRLTQYIDGQGRPRTSQS [CAMK2B], in that order: 2.24 ± 0.54 and 2.48 ± 0.23. For AAGQRSRPSTYYELLGVHPGASTE [DNAJC4], in that order: 3.58 ± 0.32 and 3.71 ± 0.23. As for AALGSRGSCSTEVEKETQEKMTIL [ATP6V1G1], the protein stability index was 2.52 ± 0.47 under setting [1] and 2.52 ± 0.55 under setting [2].

As to AALKQAIKDKEAPLHVAQTRLYLR [TEKT4], the protein stability index is, setting by setting: under setting [1], 3.06 ± 0.15; under setting [2], 3.07 ± 0.18. On to ACCGGFLEVADFLIKAGADIELGC [ANKRD17], for which the protein stability index under setting [2] amounted to 3.05 ± 1.1.

Regarding ACGLGGGYGGGFSSSSSFGSGFGG [KRT16], the protein stability index by setting is: under setting [1], 2.17 ± 0.27; under setting [2], 2.29 ± 0.25.

On to ADAVNLTIPASLDLSPLLGFWQLP [PLAGL1], for which the protein stability index was determined as 2.28 ± 0.27 under setting [1] and 2.28 ± 0.23 under setting [2].

Take ADGIEVSYNACGVLSHIMFDGPEA [ZER1]: the protein stability index was 2.93 ± 0.28 under setting [1] and 2.94 ± 0.27 under setting [2]. ADSGNFKRCINLWKYALDMQQSNL [FEM1C] yielded a protein stability index under setting [1] of 2.15 ± 0.37 and a protein stability index under setting [2] of 2.21 ± 0.37.

In the case of AEDFSTMDEISEKLKKGICEALED [MATN2], the protein stability index stood at 5.22 ± 0.32 under setting [1] and 5 ± 0.33 under setting [2]. Consider AEFQLVRDVVLCSLLNFLPEGVNK [TENT5C], for which the protein stability index is 2.37 ± 0.7 under setting [1] and 3.07 ± 0.85 under setting [2].

As to AEGIGSTVFRAILDYYKTGIIRCP [BTBD10], the protein stability index is, setting by setting: under setting [1], 2.12 ± 0.42; under setting [2], 1.99 ± 0.2. For AETAGAIMAFFLCLGLALGAVFSF [SLC29A1], the protein stability index runs as follows: under setting [1], 3.35 ± 0.66; under setting [2], 3.03 ± 0.24.

In the case of AFHRKSHSLDLNISEKLTLLPTLY [RNF180], the protein stability index by setting is: under setting [1], 2.34 ± 0.39; under setting [2], 2.1 ± 0.34. For the sequence AGINTHSNEFKESALTLACYKGHL [ANKRD17], the protein stability index under setting [1] was 2.76 ± 0.19 and the protein stability index under setting [2] was 2.86 ± 0.47. AGISRSPTICMAYLMKTKQFRLKE [DUSP5]: the protein stability index came out at 2.21 ± 0.3 under setting [1] and 2.13 ± 0.24 under setting [2]. As for AGSSHTPSSQSSSGGGRDSSSSIL [ELOA2], the protein stability index was 4.82 ± 0.26 under setting [1] and 4.78 ± 0.14 under setting [2]. Take AIFIMSLNKRHSSGDGNSKLKSE [MFSD9]: the protein stability index is, setting by setting: under setting [3], 2.64 ± 0.27; under setting [4], 2.22 ± 0.15. The sequence AIHSSDEDEDEDDEEDFEDDDEWE [WASL] displayed a protein stability index under setting [1] of 4.48 ± 0.26 and a protein stability index under setting [2] of 4.49 ± 0.27. For ALCMLAQSSPSFAEKCLDFLVDMF [INTS4], in that order: 1.86 ± 0.1 and 2.35 ± 0.064. On to ALGAMWKLHKSQLSQALNGLSDRA [TRIM9], for which the protein stability index is, setting by setting: under setting [1], 2.21 ± 0.29; under setting [2], 2.34 ± 0.35.

As to ALMHVMQKRSRAIHSSDEGEDQAG [WAS], the protein stability index under setting [1] turned out to be 4.25 ± 0.27 and the protein stability index under setting [2] was found to be 4.49 ± 0.13. As for ALREVYAHAVLGQHSHVVRYFSAW [WEE1], the protein stability index under setting [1] was found to be 2.36 ± 0.34 and the protein stability index under setting [2] turned out to be 2.03 ± 0.3. On the same counts, the results for ALVYSITAQSTFNDLQDLREQILR [RAP1B] are 2.27 ± 0.33 and 2.42 ± 0.4.

As for AMALTSSMNWGINLLISLTFLTVT [SLC2A12], the protein stability index was 3.14 ± 0.36 under setting [1] and 3.32 ± 0.33 under setting [2]. Turning to APRFSFNDPSGSEEADFLSAETGS [IRX6], the protein stability index runs as follows: under setting [1], 5.36 ± 0.14; under setting [2], 5.33 ± 0.24.

For APSLRRHVLIHNTLQQLQAALRLA [SERTAD3], the protein stability index is, setting by setting: under setting [1], 2.21 ± 0.33; under setting [2], 2.29 ± 0.13.

On to AQALGYYYVLEPRVVDGTPCSPDS [ADAMTS4], for which the protein stability index reads like this: under setting [1], 2.74 ± 0.52; under setting [2], 2.7 ± 0.38.

On to AQDLTEAEGWHFFCFQGEATRKLA [SAT2], for which the protein stability index was found to be 2.94 ± 0.36 under setting [1] and 3.32 ± 0.46 under setting [2]. On to AQILPSRVQGGCYRFDSSSCSSED [DRICH1], for which the protein stability index by setting is: under setting [1], 4.05 ± 0.26; under setting [2], 3.92 ± 0.35. Consider AQKISKGADPKSVVCAFFKQGQCT [ZC3H15], for which the protein stability index under setting [1] came out at 3.32 ± 0.34 and the protein stability index under setting [2] stood at 3.31 ± 0.26. As for AQVLLAMHANVEDRGIKGDITPLM [ANKRD17], the protein stability index under setting [1] worked out at 2.99 ± 0.093 and the protein stability index under setting [2] came to 3.04 ± 0.13.

For the sequence ARGEDRAGPQSPSPGAPPAAKPAR [TSPAN10], the protein stability index is 5.1 ± 0.56 under setting [1] and 5.65 ± 0.097 under setting [2]. With ARGLDDAAARGGQCPGLGPAPTPT [ZBED3], the protein stability index stood at 4.65 ± 0.14 under setting [1] and 4.7 ± 0.25 under setting [2].

As to ARIQTLEPDNWMKEVMLFGHGTRK [RSAD1], the protein stability index is, setting by setting: under setting [1], 3 ± 0.5; under setting [2], 3.33 ± 0.35. As for ARKQDMNTKRAIHTLAVMNDRLYA [KLHL14], the protein stability index stood at 2.55 ± 0.24 under setting [1] and 2.93 ± 0.36 under setting [2]. On the same counts, the results for ARPSETFARFCKSQESALGNTVPA [DNAAF3] are 3.12 ± 0.26 and 2.94 ± 0.26. In turn, ARWRRLRLQQLRRLRGLLRVLRGR [FBXO33] had a protein stability index under setting [1] of 3.52 ± 0.39 and a protein stability index under setting [2] of 3.95 ± 0.65. The sequence ASGSTQRQPPPPAPQHPQPGSQAL [FBXO28] displayed a protein stability index under setting [1] of 5.14 ± 0.27 and a protein stability index under setting [2] of 5.12 ± 0.089. Sequence ASNWSTTGFGQGQGYTINVPWNQV [HDAC6] returned a protein stability index under setting [1] of 2.14 ± 0.47 and a protein stability index under setting [2] of 2.22 ± 0.43. For ASSQHSEGSRSSGSNRSGSDRRKE [DVL3], in that order: 5.37 ± 0.16 and 5.52 ± 0.16. In the case of ASWMYQLQHGDQLSICFTCFKAAF [TEX19], the protein stability index under setting [1] stood at 2.59 ± 0.42 and the protein stability index under setting [2] is 2.51 ± 0.53. On to ATDGARPQALPEPMQESKAEGNNQ [CHGA], for which the protein stability index was 5.67 ± 0.18 under setting [1] and 5.76 ± 0.11 under setting [2]. On to ATLFFNPQESAILQLFHQDGTFSP [CLCN6], for which the protein stability index is, setting by setting: under setting [1], 2.25 ± 0.42; under setting [2], 2.29 ± 0.074.

On to ATSATSHTRSLNSIIHQMEKFSSS [FBF1], for which the protein stability index is 3.34 ± 0.28 under setting [1] and 3.59 ± 0.39 under setting [2]. For ATSGPPGIQPGQEPPVTMIFMGYQ [PALM], the protein stability index turned out to be 2.47 ± 0.24 under setting [1] and 2.38 ± 0.14 under setting [2]. In the case of AVLGGFLYAVGGQDGVSCLNIVER [KLHL20], the protein stability index reads like this: under setting [1], 2.16 ± 0.45; under setting [2], 2.55 ± 0.47.

AVLTTHHHWDHARGNPELARLRPG [HAGHL] displayed a protein stability index under setting [1] of 3.28 ± 0.17 and a protein stability index under setting [2] of 3.4 ± 0.34. The sequence AVNAHQWLDNPERWNKVKMVVSRE [SEPHS2] displayed a protein stability index under setting [1] of 3.02 ± 0.37 and a protein stability index under setting [2] of 2.67 ± 0.3. AVVKGIQSSGKVMYFSSLFPYVVL [SLC6A17] had a protein stability index under setting [1] of 3.09 ± 0.49 and a protein stability index under setting [2] of 2.51 ± 0.028. As for AWLEGRIRQEFDKLREFLRVEEQA [TRIM35], the protein stability index was 2.81 ± 0.4 under setting [1] and 2.94 ± 0.5 under setting [2]. For AWTLINLSFAAKQRELHSHVTNAM [DHCR7], in that order: 3.12 ± 0.34 and 3.05 ± 0.24. For AYAHPQQKVAVYRALQAALAESGG [TRADD], in that order: 2.43 ± 0.51 and 2.65 ± 0.34. Consider AYDEALAELHAHGPAAFVDYFERN [ZSWIM9], for which the protein stability index by setting is: under setting [1], 3.73 ± 0.24; under setting [2], 3.74 ± 0.34. Regarding CADVPLLTPSSKEMMSQALKATFS [ETS1], the protein stability index runs as follows: under setting [1], 2.79 ± 0.2; under setting [2], 2.66 ± 0.3. Regarding CAGSTALQEPGEPQGPPASPSCPE [PXN], the protein stability index is, setting by setting: under setting [1], 5.15 ± 0.27; under setting [2], 5.48 ± 0.18. In the case of CATDTKNVQFVFDAVTDVIIKNNL [GNAI1], the protein stability index under setting [1] was 2 ± 0.28 and the protein stability index under setting [2] is 2.43 ± 0.22.

CFLLTAMAYDQFLAICRPLTYSTR [OR3A1]: the protein stability index is, setting by setting: under setting [1], 2.89 ± 0.35; under setting [2], 2.89 ± 0.69. Consider CGKSFTQSSGLIRHQRIHTGERPY [ZSCAN9], for which the protein stability index under setting [1] was 2.14 ± 0.034 and the protein stability index under setting [2] was determined as 2.25 ± 0.21.

For the sequence CGRYINGHMLQHHGNSGHPLVLSY [HDAC6], the protein stability index under setting [1] stood at 2.51 ± 0.29 and the protein stability index under setting [2] came to 2.65 ± 0.77. With CGSFYREPIILPCSHNLCQACARN [TRIM9], the protein stability index is, setting by setting: under setting [1], 2.22 ± 0.25; under setting [2], 2.19 ± 0.33. On the same counts, the results for CGYFQVVNYTQGLWEKVMPSRYAA [SLC19A2] are 2.7 ± 0.79 and 2.46 ± 0.41.

With CIELYFDEKYSIEPSWECKFDHIE [NETO1], the protein stability index came to 2.13 ± 0.42 under setting [1] and 2.24 ± 0.25 under setting [2].

For the sequence CIGQRRFHTMDELVEHYKKAPIFT [NCK2], the protein stability index is, setting by setting: under setting [1], 2.54 ± 0.2; under setting [2], 2.65 ± 0.38. For the sequence CKKGDPKHGKRKRGRPRKLSKEYW [ELF3], the protein stability index came out at 3.56 ± 0.13 under setting [1] and 3.85 ± 0.22 under setting [2].

Regarding CKNSNTVYCKLESCPSRGQGKPS [SPRY1], the protein stability index by setting is: under setting [3], 3.789 ± 0.011; under setting [4], 3.97 ± 0.22. For CKRMDLVCQRMLNQGFLKVERYHN [FBXO28], the protein stability index amounted to 2.38 ± 0.29 under setting [1] and 2.1 ± 0.16 under setting [2]. CKSGYHPTKSHSFRAMCQNGKLVY [CFHR2]: the protein stability index reads like this: under setting [1], 2.16 ± 0.18; under setting [2], 2.38 ± 0.43. With CLELVSCFVLFSLTHTHTHTPNHR [ANKRD44], the protein stability index is, setting by setting: under setting [1], 2.7 ± 0.081; under setting [2], 3.55 ± 0.097. For CLFSERDAAGAPRDASDPLAGAAL [SMAD6], in that order: 4 ± 0.46 and 4.33 ± 0.2.
